The results in this text go back to patent US20210238276A1 (INTEGRAL MOLECULAR, published 2021).

Holding throughout (assay): flow cytometry, alanine-scan library in HEK-293T, with cytochalasin B
A general note: In flow cytometry, cells or beads pass a laser one at a time.

Assay [1] deals with T1, hsGLUT4 P66A (human, UniProt P14672 1-509).
T1 sequence: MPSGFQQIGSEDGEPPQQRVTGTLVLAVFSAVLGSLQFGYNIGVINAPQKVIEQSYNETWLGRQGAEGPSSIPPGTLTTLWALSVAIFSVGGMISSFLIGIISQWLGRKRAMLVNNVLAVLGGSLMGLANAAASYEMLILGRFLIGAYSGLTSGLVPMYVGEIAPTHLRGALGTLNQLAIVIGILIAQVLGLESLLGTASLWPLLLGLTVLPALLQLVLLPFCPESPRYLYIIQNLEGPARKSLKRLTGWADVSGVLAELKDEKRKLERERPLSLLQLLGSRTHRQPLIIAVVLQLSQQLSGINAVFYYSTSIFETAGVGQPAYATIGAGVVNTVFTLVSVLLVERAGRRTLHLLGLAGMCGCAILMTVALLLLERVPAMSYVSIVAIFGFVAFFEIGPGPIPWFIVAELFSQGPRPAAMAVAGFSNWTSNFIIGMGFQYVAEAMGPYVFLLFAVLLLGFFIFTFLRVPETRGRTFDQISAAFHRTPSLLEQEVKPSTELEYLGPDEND
The procedure, abridged:
(§1)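 HEK-293T cells expressing individual GLUT4 alanine mutants were stained 48 h post-transfection with anti-GLUT4 scFv MAbs (2 μg/ml), then biotinylated secondary and streptavidin-PerCP, and read by high-throughput flow cytometry. Where used, cytochalasin B (10 uM final) was given for 30 min before and during primary antibody staining.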

Assay [2] addresses T2, hsGLUT4 F314A (human, UniProt P14672 1-509).
T2 sequence: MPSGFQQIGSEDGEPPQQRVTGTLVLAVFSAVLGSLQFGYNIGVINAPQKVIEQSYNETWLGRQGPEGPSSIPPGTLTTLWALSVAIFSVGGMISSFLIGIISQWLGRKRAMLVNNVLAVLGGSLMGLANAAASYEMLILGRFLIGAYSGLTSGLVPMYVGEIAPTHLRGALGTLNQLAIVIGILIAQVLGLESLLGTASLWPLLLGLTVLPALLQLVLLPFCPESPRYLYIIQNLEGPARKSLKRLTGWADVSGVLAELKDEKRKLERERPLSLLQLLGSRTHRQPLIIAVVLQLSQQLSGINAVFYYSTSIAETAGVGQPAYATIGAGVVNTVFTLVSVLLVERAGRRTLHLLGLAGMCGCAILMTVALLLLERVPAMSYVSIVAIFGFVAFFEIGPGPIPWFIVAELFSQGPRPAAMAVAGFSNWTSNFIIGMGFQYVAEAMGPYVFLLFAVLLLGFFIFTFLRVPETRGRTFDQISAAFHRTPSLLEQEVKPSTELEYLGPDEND
The procedure, abridged: as §1

Assay [3] has as its target T3, hsGLUT4 E315A (human, UniProt P14672 1-509).
T3 sequence: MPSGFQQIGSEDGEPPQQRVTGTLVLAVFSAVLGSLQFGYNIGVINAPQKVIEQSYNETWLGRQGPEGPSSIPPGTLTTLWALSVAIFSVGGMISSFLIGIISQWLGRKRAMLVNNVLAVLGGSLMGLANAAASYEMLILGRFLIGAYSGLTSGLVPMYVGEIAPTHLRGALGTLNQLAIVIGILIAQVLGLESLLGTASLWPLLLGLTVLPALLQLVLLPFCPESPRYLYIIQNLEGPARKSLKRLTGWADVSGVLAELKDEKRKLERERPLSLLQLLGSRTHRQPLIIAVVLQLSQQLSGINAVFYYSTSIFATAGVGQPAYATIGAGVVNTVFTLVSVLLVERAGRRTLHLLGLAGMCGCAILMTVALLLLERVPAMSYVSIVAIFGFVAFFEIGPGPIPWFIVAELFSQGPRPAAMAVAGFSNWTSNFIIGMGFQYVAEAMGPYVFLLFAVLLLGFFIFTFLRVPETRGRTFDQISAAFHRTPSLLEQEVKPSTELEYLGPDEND
Summed up: as §1

For assay [4], the target named is T4, hsGLUT4 R416A (human, UniProt P14672 1-509).
T4 sequence: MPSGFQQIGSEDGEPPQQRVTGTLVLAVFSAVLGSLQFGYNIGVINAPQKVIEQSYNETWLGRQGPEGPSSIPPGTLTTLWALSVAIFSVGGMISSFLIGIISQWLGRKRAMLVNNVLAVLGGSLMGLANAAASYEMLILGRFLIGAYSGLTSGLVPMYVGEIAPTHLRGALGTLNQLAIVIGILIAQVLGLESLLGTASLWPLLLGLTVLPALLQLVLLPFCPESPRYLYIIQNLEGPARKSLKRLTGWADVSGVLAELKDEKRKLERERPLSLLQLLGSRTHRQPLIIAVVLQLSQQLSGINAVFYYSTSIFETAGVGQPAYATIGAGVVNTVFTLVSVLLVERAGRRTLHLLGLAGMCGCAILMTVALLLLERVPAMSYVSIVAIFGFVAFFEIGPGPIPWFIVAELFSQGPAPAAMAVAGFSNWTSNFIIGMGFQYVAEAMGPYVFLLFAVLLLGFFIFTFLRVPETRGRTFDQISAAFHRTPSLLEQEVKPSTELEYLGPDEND
The procedure, abridged:
as §1

B1: AB102 (Fc fusion)
scFv: ALTQPSSVSANLGGTVKITCSGGGSYGYGWYQQKSPGSAPVTVIYSNDQRPSDIPSRFSGSKSGSTATLTITGVRAEDEAIYYCGSTDSDYVGIFGAGTTLTVLGQSSRSSGGGGSSGGGGSAVTLDESGGGLQTPGGTLSLVCKASGFDFSSYATIWVRQAPGKGLEWVAGISGTGTGSSTGYAPAVKGRATISRDNGQSTVRLQLNNLRAEDTGSYFCAKSTGYGDSWIYPDSIDAWGHGTEVIVSS
notes: also called MAb AB102; not shown: Fc fragment of human IgG1, cloned in frame with the scFv
On to B1, for which the “% of binding to wild type GLUT4” value in assay [1] turned out to be 97%; in assay [2] it was 23%; in assay [3], 76%; in assay [4], 70%.
